Assay [1] concerns the target HLA-B*15:01. Briefly: IEDB peptide-MHC binding, purified MHC/competitive/radioactivity; filed as Kd, often an IC50 or EC50 that approximates it; ≥ and ≤ were set here for values at or beyond the usual limits of such assays.
Assay [2] addresses HLA-A*02:01. The assay is described as above.
A further assay concerns the target HLA-B*08:01. Described as above.
In the next assay the target is HLA-B*40:01. Described as above.
Assay [3] concerns the target HLA-A*02:01. Briefly: IEDB peptide-MHC binding, purified MHC/competitive/fluorescence; filed as Kd, often an IC50 or EC50 that approximates it; ≥ and ≤ were set here for values at or beyond the usual limits of such assays.
In another assay the target is HLA-A*26:01. In words: IEDB peptide-MHC binding, purified MHC/competitive/radioactivity; filed as Kd, often an IC50 or EC50 that approximates it; ≥ and ≤ were set here for values at or beyond the usual limits of such assays.
The target of a further assay is HLA-B*35:01. Described as above.
Assay [4] concerns the target HLA-B*15:01. In words: IEDB peptide-MHC binding, purified MHC/competitive/fluorescence; filed as Kd, often an IC50 or EC50 that approximates it; ≥ and ≤ were set here for values at or beyond the usual limits of such assays. As to conditions: source organism: Bacillus cereus G9241.
Assay [5] addresses HLA-A*03:01. In words: IEDB peptide-MHC binding, purified MHC/competitive/radioactivity; filed as Kd, often an IC50 or EC50 that approximates it; ≥ and ≤ were set here for values at or beyond the usual limits of such assays. As to conditions: source organism: Dengue virus 4 Philippines/H241/1956.
The next assay has as its target HLA-A*30:02. Described as above.
In a further assay the target is HLA-B*07:02. Described as above.
In another assay the target is HLA-B*51:01. Described as above. As to conditions: source organism: Dengue virus 3 Martinique/1243/1999.
For the next assay, the target named is HLA-B*53:01. The description is as above. As to conditions: source organism: Dengue virus 3 Martinique/1243/1999.
For assay [6], the target named is HLA-A*01:01. The description is as above. As to conditions: source organism: Dengue virus 3 Martinique/1243/1999.
Assay [7] addresses HLA-A*01:01. In words: IEDB peptide-MHC binding, purified MHC/direct/fluorescence; filed as Kd, often an IC50 or EC50 that approximates it; ≥ and ≤ were set here for values at or beyond the usual limits of such assays. The settings on record: source organism: SARS-CoV1.
In a further assay the target is HLA-A*11:01. The description is as above. The settings on record: source organism: SARS-CoV1.
Assay [8] has as its target HLA-B*15:01. The assay is described as above. As to conditions: source organism: SARS-CoV1.
A further assay deals with HLA-B*58:01. The assay is described as above. The settings on record: source organism: SARS-CoV1.
The next assay addresses HLA-A*23:01. In words: IEDB peptide-MHC binding, purified MHC/competitive/radioactivity; filed as Kd, often an IC50 or EC50 that approximates it; ≥ and ≤ were set here for values at or beyond the usual limits of such assays. The settings on record: source organism: SARS coronavirus Tor2.
The target in another assay is HLA-A*24:02. The description is as above. The settings on record: source organism: SARS coronavirus Tor2.
The target of another assay is HLA-A*29:02. Described as above. The settings on record: source organism: SARS coronavirus Tor2.
Assay [9] addresses HLA-A*03:01. Briefly: IEDB peptide-MHC binding, purified MHC/direct/fluorescence; filed as Kd, often an IC50 or EC50 that approximates it; ≥ and ≤ were set here for values at or beyond the usual limits of such assays. The settings on record: source organism: SARS-CoV1.
Another assay concerns the target HLA-A*69:01. The assay is described as above. As to conditions: source organism: SARS-CoV1.
Another assay concerns the target HLA-A*02:02. Briefly: IEDB peptide-MHC binding, purified MHC/competitive/radioactivity; filed as Kd, often an IC50 or EC50 that approximates it; ≥ and ≤ were set here for values at or beyond the usual limits of such assays. As to conditions: source organism: SARS coronavirus Tor2.
In a further assay the target is HLA-A*02:03. The description is as above. The settings on record: source organism: SARS coronavirus Tor2.
The next assay has as its target HLA-A*02:06. The assay is described as above. The settings on record: source organism: SARS coronavirus Tor2.
Setting [10] is: source organism: Dengue virus 2 Jamaica/1409/1983.
[11] abbreviates: source organism: Dengue virus 1 Brazil/97-11/1997.
The mark [12] stands for this setting: source organism: Vaccinia virus WR.
[13] abbreviates: source organism: Dengue virus 3 Martinique/1243/1999.
[14] abbreviates: source organism: Dengue virus 4 Philippines/H241/1956.
Where [15] appears, read: source organism: SARS coronavirus Tor2.

The values below come from the Immune Epitope Database (IEDB).

pKd: −log10 of the molar value. A value given as a limit tells only on which side of the number the result lay.

The term pKd denotes −log10 of the Kd, conventionally taken in molar units.

In the case of LIIMDEAHF, the pKd with HLA-B*15:01 [1] (setting [10]) was 7.72. With ILIEGVFFA, in the assay with HLA-A*02:01 [2] (source organism: Human alphaherpesvirus 2), the pKd is 9.80. Consider KRKLRTLIL, for which the pKd with HLA-B*08:01 (setting [11]) is 6.34. On to MECSPRTGL, for which, in the assay with HLA-B*40:01 (setting [10]), the pKd was 6.82. As for QNHKKSAHF, the pKd with HLA-B*15:01 [1] (setting [12]) was 6.39. The same measure, in the same setting: then LNINKNGSF, with 6.32. Consider FQNWGIESI, for which, in the assay with HLA-A*02:01 [3] (source organism: Influenza A virus (A/Wilson-Smith/1933(H1N1))), the pKd was 8.64. As to FLETDAGRV, in the assay with HLA-A*02:01 [2] (source organism: Variola virus), the pKd was 7.00.

Consider MLVTPSMAM, for which the pKd in the assay with HLA-A*26:01 (setting [11]) was 5.19; with HLA-B*15:01 [1] (setting [11]), 8.51; with HLA-B*35:01 (setting [11]), 6.35. On to FCSHHFHEL, for which the pKd with HLA-B*08:01 (setting [13]) is 6.87. For TTAEEAAGI, in the assay with HLA-A*02:01 [2] (source organism: Homo sapiens), the pKd was 5.38.

RTKAIGLNF had a pKd in the assay with HLA-B*15:01 [4] of 7.07. As for QETWNRQDLL, in the assay with HLA-B*40:01 (setting [11]), the pKd is 8.04. For the sequence FIASKGVKLV, the pKd with HLA-A*02:01 [2] (source organism: Homo sapiens) is 7.43. Consider ALLAGFMAY, for which the figures for the pKd with HLA-A*03:01 [5], with HLA-A*30:02 (setting [14]) and with HLA-B*15:01 [1] (setting [14]) were 8.78, 7.10 and 8.94, respectively. Regarding QLQPFLQPQL, the pKd in the assay with HLA-A*02:01 [2] (source organism: Triticum aestivum) is not above 5.00. As to LPVCQSSSM, the pKd with HLA-B*07:02 (setting [13]) is 7.98; with HLA-B*35:01 (setting [13]) it was 7.90; with HLA-B*51:01 it was 5.56; in the assay with HLA-B*53:01, 6.00. Turning to TPQPKPGTRM, the pKd with HLA-B*07:02 (setting [14]) was 7.40; with HLA-B*35:01 (setting [14]), 6.75. As for NQYLLTMFF, the pKd in the assay with HLA-B*15:01 [1] (setting [12]) was 8.92. On to RLNALGKSEF, for which the pKd in the assay with HLA-B*15:01 [1] (setting [10]) was 7.76. As to SPYVKFIYF, in the assay with HLA-B*08:01 (setting [12]), the pKd was 5.75.

Take AETQHGTVLV: the negative logarithm of the Kd (pKd) in the assay with HLA-B*40:01 (setting [11]) is 7.01. Turning to SEIKRGLFF, the pKd with HLA-B*15:01 [1] (setting [12]) is 6.49. In the case of YMGEDGCWY, the pKd is 6.75 with HLA-A*01:01 [6], not above 4.43 with HLA-A*30:02 (setting [13]) and 7.83 with HLA-B*15:01 [1] (setting [13]). For the sequence RVIDPRRCM, the pKd with HLA-B*07:02 (setting [10]) was 5.94. Regarding LVEKVLKIL, in the assay with HLA-A*02:01 [3] (source organism: Vaccinia virus), the negative logarithm of the Kd (pKd) is 6.00.

For the sequence TQDLFLPFY, the pKd with HLA-A*01:01 [7] was 5.74; with HLA-A*11:01, 6.37; with HLA-B*15:01 [8], 5.77; with HLA-B*58:01, not above 4.50; in the assay with HLA-A*23:01 it was not above 4.17; with HLA-A*24:02 it was not above 4.11. Further, the pKd is 4.77 with HLA-A*26:01 (setting [15]), 6.37 with HLA-A*29:02 and 8.29 with HLA-A*30:02 (setting [15]). For the sequence LLALQQLEV, the pKd in the assay with HLA-A*03:01 [9] was 5.69; in the assay with HLA-A*69:01 it was 6.62; with HLA-B*15:01 [8], 5.42; with HLA-A*02:01 [3] (source organism: SARS-CoV1), 8.57; with HLA-A*02:02, 9.86; with HLA-A*02:03 it was 9.53. In addition, the pKd with HLA-A*02:06 was 7.38. Consider LAKRFSKGLL, for which, in the assay with HLA-B*08:01 (setting [11]), the pKd is 5.60. For the sequence VIEEVMNIV, in the assay with HLA-A*02:01 [2] (source organism: Lassa virus GA391), the pKd is 5.20.
